{
  "source": "patent US20140348865A1",
  "about": "“[…] ON AN HIV-1 V1V2 SITE-OF-VULNERABILITY” (The United States of America, as represented by the …, priority 2011, published 2014)",
  "key": {"[1]": {"biological_target": "linked dimers of the gp120 V1/V2 domain", "assay": "SPR"}, "[2]": {"biological_target": "linked dimers of the gp120 V1/V2 domain", "assay": "gel filtration shift"}, "[3]": {"biological_target": "Env of HIV-1 strain 0439 (pseudovirus) (HIV-1)", "assay": "cell-based or functional assay"}, "[4]": {"biological_target": "Env of HIV-1 strain 3873 (pseudovirus) (HIV-1)", "assay": "cell-based or functional assay"}, "[5]": {"biological_target": "Env of HIV-1 strain 398 (pseudovirus) (HIV-1)", "assay": "cell-based or functional assay"}, "[6]": {"biological_target": "Env of HIV-1 strain 6322 (pseudovirus) (HIV-1)", "assay": "cell-based or functional assay"}, "[7]": {"biological_target": "Env of HIV-1 strain 6405 (pseudovirus) (HIV-1)", "assay": "cell-based or functional assay"}, "[8]": {"biological_target": "Env of HIV-1 strain 6471 (pseudovirus) (HIV-1)", "assay": "cell-based or functional assay"}, "[9]": {"biological_target": "Env of HIV-1 strain 6631 (pseudovirus) (HIV-1)", "assay": "cell-based or functional assay"}, "[10]": {"biological_target": "Env of HIV-1 strain 7165.18 (pseudovirus) (HIV-1)", "assay": "cell-based or functional assay"}, "[11]": {"biological_target": "Env of HIV-1 strain A03349M1 (pseudovirus) (HIV-1)", "assay": "cell-based or functional assay"}, "[12]": {"biological_target": "Env of HIV-1 strain BG 1168 (pseudovirus) (HIV-1)", "assay": "cell-based or functional assay"}, "[13]": {"biological_target": "Env of HIV-1 strain CNE30 (pseudovirus) (HIV-1)", "assay": "cell-based or functional assay"}, "[14]": {"biological_target": "Env of HIV-1 strain CNE4 (pseudovirus) (HIV-1)", "assay": "cell-based or functional assay"}, "[15]": {"biological_target": "Env of HIV-1 strain CNE56 (pseudovirus) (HIV-1)", "assay": "cell-based or functional assay"}, "[16]": {"biological_target": "Env of HIV-1 strain JRFL (pseudovirus) (HIV-1)", "assay": "cell-based or functional assay"}, "[17]": {"biological_target": "Env of HIV-1 strain QH0515 (pseudovirus) (HIV-1)", "assay": "cell-based or functional assay"}, "[18]": {"biological_target": "Env of HIV-1 strain QH209 (pseudovirus) (HIV-1)", "assay": "cell-based or functional assay"}, "[19]": {"biological_target": "Env of HIV-1 strain RHPA (pseudovirus) (HIV-1)", "assay": "cell-based or functional assay"}, "[20]": {"biological_target": "Env of HIV-1 strain T251-18 (pseudovirus) (HIV-1)", "assay": "cell-based or functional assay"}, "[21]": {"biological_target": "Env of HIV-1 strain X2088 (pseudovirus) (HIV-1)", "assay": "cell-based or functional assay"}, "[22]": {"biological_target": "Env of HIV-1 strain ZM135 (pseudovirus) (HIV-1)", "assay": "cell-based or functional assay"}, "1JO8-ZM109 V1V2 scaffold [23]": {"biological_target": "1JO8-ZM109 V1V2 scaffold", "assay": "ELISA, PG9 dilution series"}, "epitope-scaffold 1VH8_C [24]": {"biological_target": "epitope-scaffold 1VH8_C", "assay": "ELISA, PG9 dilution series"}, "epitope-scaffold 2ZJR_A [25]": {"biological_target": "epitope-scaffold 2ZJR_A", "assay": "ELISA, PG9 dilution series"}, "epitope-scaffold 2ZJR_B": {"biological_target": "epitope-scaffold 2ZJR_B", "assay": "ELISA, PG9 dilution series"}, "[26]": {"biological_target": "gp120 of HIV-1 strain 16055, full length (HIV-1)", "assay": "ELISA, PG9 dilution series"}, "1JO8-ZM109 V1V2 scaffold [27]": {"biological_target": "1JO8-ZM109 V1V2 scaffold", "assay": "ELISA, antibody dilution series on the scaffold"}, "1X3E": {"biological_target": "1X3E", "assay": "ELISA, antibody dilution series on the scaffold"}, "epitope-scaffold 2ZJR_A [28]": {"biological_target": "epitope-scaffold 2ZJR_A", "assay": "ELISA, antibody dilution series on the scaffold"}, "epitope-scaffold 1VH8_C [29]": {"biological_target": "epitope-scaffold 1VH8_C", "assay": "ELISA, antibody dilution series on the scaffold after large-scale expression"}},
  "data": [
    {"substance": "monoclonal antibody PG9", "values": [
      {"measurement": "Kd", "setting": "[1]", "result": "< 1", "unit": "µM"},
      {"measurement": "percent active for PG9 binding", "setting": "[2]", "result": 100, "unit": "%"},
      {"measurement": "neutralization IC50, Env-pseudovirus, TZM-bl cells", "setting": "[3]", "result": "> 50", "unit": "µg/mL"},
      {"measurement": "neutralization IC50, Env-pseudovirus, TZM-bl cells", "setting": "[4]", "result": "> 50", "unit": "µg/mL"},
      {"measurement": "neutralization IC50, Env-pseudovirus, TZM-bl cells", "setting": "[5]", "result": "> 50", "unit": "µg/mL"},
      {"measurement": "neutralization IC50, Env-pseudovirus, TZM-bl cells", "setting": "[6]", "result": "> 50", "unit": "µg/mL"},
      {"measurement": "neutralization IC50, Env-pseudovirus, TZM-bl cells", "setting": "[7]", "result": "> 50", "unit": "µg/mL"},
      {"measurement": "neutralization IC50, Env-pseudovirus, TZM-bl cells", "setting": "[8]", "result": "> 50", "unit": "µg/mL"},
      {"measurement": "neutralization IC50, Env-pseudovirus, TZM-bl cells", "setting": "[9]", "result": "> 50", "unit": "µg/mL"},
      {"measurement": "neutralization IC50, Env-pseudovirus, TZM-bl cells", "setting": "[10]", "result": "> 50", "unit": "µg/mL"},
      {"measurement": "neutralization IC50, Env-pseudovirus, TZM-bl cells", "setting": "[11]", "result": "> 50", "unit": "µg/mL"},
      {"measurement": "neutralization IC50, Env-pseudovirus, TZM-bl cells", "setting": "[12]", "result": "> 50", "unit": "µg/mL"},
      {"measurement": "neutralization IC50, Env-pseudovirus, TZM-bl cells", "setting": "[13]", "result": "> 50", "unit": "µg/mL"},
      {"measurement": "neutralization IC50, Env-pseudovirus, TZM-bl cells", "setting": "[14]", "result": "> 50", "unit": "µg/mL"},
      {"measurement": "neutralization IC50, Env-pseudovirus, TZM-bl cells", "setting": "[15]", "result": "> 50", "unit": "µg/mL"},
      {"measurement": "neutralization IC50, Env-pseudovirus, TZM-bl cells", "setting": "[16]", "result": "> 50", "unit": "µg/mL"},
      {"measurement": "neutralization IC50, Env-pseudovirus, TZM-bl cells", "setting": "[17]", "result": "> 50", "unit": "µg/mL"},
      {"measurement": "neutralization IC50, Env-pseudovirus, TZM-bl cells", "setting": "[18]", "result": "> 50", "unit": "µg/mL"},
      {"measurement": "neutralization IC50, Env-pseudovirus, TZM-bl cells", "setting": "[19]", "result": "> 50", "unit": "µg/mL"},
      {"measurement": "neutralization IC50, Env-pseudovirus, TZM-bl cells", "setting": "[20]", "result": "> 50", "unit": "µg/mL"},
      {"measurement": "neutralization IC50, Env-pseudovirus, TZM-bl cells", "setting": "[21]", "result": "> 50", "unit": "µg/mL"},
      {"measurement": "neutralization IC50, Env-pseudovirus, TZM-bl cells", "setting": "[22]", "result": "> 50", "unit": "µg/mL"},
      {"measurement": "EC50 (read off the curve)", "setting": "1JO8-ZM109 V1V2 scaffold [23]", "result": 0.03, "unit": "µg/mL"},
      {"measurement": "EC50 (read off the curve)", "setting": "epitope-scaffold 1VH8_C [24]", "result": 0.03, "unit": "µg/mL"},
      {"measurement": "EC50 (read off the curve)", "setting": "epitope-scaffold 2ZJR_A [25]", "result": 0.01, "unit": "µg/mL"},
      {"measurement": "EC50 (read off the curve)", "setting": "epitope-scaffold 2ZJR_B", "result": 0.01, "unit": "µg/mL"},
      {"measurement": "EC50 (read off the curve)", "setting": "[26]", "result": 0.004, "unit": "µg/mL"},
      {"measurement": "EC50 (read off the curve)", "setting": "1JO8-ZM109 V1V2 scaffold [27]", "result": 0.5, "unit": "µg/mL"},
      {"measurement": "EC50 (read off the curve)", "setting": "1X3E", "result": 1, "unit": "µg/mL"},
      {"measurement": "EC50 (read off the curve)", "setting": "epitope-scaffold 2ZJR_A [28]", "result": 0.3, "unit": "µg/mL"},
      {"measurement": "EC50 (read off the curve)", "setting": "epitope-scaffold 1VH8_C [29]", "result": 0.8, "unit": "µg/mL"}
    ]}
  ]
}
